This note sets out measurements from US20120121591A1 (priority 2009, published 2012).

For one experiment, the target named is human Kv1.3 (Homo sapiens, UniProt P22001). Kind of experiment: cell-based or functional assay.
A further experiment has as its target human Kv1.1 (Homo sapiens, UniProt Q09470). In words: cell-based or functional assay.

Sequence of human Kv1.3 (P22001 whole entry): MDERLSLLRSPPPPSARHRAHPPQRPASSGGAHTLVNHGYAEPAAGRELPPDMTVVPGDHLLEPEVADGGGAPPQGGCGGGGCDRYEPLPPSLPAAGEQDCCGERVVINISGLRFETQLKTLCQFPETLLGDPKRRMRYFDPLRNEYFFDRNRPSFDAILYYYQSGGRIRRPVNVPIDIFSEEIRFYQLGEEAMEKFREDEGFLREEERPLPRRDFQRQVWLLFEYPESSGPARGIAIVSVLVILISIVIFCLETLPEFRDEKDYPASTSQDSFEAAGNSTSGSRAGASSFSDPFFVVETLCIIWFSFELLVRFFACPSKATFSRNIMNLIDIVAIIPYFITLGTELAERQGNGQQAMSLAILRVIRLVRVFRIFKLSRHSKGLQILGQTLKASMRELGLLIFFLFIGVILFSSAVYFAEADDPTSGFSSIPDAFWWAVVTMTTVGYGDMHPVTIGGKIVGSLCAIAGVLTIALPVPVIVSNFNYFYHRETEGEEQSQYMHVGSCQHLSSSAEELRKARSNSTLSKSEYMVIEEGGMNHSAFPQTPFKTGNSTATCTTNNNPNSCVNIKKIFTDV
Sequence of human Kv1.1 (Q09470 whole entry): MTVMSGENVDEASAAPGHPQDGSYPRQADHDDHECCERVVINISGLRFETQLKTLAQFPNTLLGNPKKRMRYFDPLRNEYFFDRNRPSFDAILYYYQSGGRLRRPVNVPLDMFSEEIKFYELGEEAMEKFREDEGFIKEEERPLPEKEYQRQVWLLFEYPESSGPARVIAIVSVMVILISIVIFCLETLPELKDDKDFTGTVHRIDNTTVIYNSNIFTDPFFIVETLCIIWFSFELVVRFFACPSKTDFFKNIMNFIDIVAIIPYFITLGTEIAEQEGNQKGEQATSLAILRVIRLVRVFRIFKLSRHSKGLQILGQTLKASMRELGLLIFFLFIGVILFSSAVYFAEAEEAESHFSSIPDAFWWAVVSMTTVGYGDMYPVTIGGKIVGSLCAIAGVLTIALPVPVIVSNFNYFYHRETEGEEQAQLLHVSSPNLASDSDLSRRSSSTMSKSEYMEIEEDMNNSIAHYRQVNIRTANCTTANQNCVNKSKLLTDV

In the experiment with human Kv1.3, “[Glu4; Lys16,29; 1-Nal26;Arg30]ShK-amide (peptide)” gave a Kv1.3 (IWQ) IC50 of 0.384 nM, a WB (IFNg) IC50 of 0.598 nM and a WB (IL-2) IC50 of 0.712 nM.
The matching figures for “[Glu4; Lys16,29;Arg18,30; Nle21]ShK-amide (peptide)”: 0.269 nM, 1.33 nM and 1.96 nM.
In the experiment with human Kv1.1, “[Glu4;Lys16,29;1-Nal26;Arg30;Nle21]ShK-amide (peptide)” showed a Kv1.1 (IWQ) IC50 of 3.3 nM. In the experiment with human Kv1.3, the Kv1.3 (IWQ) IC50 is 1.66 nM, the WB (IFNg) IC50 came out at 17.4 nM and the WB (IL-2) IC50 was 10.7 nM.
